Measured values as given in IntAct's records for PubMed 16606821.

B1: Insulin-induced gene 1 protein (Homo sapiens), O15503-1 (parent)
chain: MPRLHDHFWSCSCAHSARRRGPPRASAAGLAAKVGEMINVSVSGPSLLAAHGAPDADPAPRGRSAAMSGPEPGSPYPNTWHHRLLQRSLVLFSVGVVLALVLNLLQIQRNVTLFPEEVIATIFSSAWWVPPCCGTAAAVVGLLYPCIDSHLGEPHKFKREWASVMRCIAVFVGINHASAKLDFANNVQLSLTLAALSLGLWWTFDRSRSGLGLGITIAFLATLITQFLVYNGVYQYTSPDFLYIRSWLPCIFFSGGVTVGNIGRQLAMGVPEKPHSD
partner: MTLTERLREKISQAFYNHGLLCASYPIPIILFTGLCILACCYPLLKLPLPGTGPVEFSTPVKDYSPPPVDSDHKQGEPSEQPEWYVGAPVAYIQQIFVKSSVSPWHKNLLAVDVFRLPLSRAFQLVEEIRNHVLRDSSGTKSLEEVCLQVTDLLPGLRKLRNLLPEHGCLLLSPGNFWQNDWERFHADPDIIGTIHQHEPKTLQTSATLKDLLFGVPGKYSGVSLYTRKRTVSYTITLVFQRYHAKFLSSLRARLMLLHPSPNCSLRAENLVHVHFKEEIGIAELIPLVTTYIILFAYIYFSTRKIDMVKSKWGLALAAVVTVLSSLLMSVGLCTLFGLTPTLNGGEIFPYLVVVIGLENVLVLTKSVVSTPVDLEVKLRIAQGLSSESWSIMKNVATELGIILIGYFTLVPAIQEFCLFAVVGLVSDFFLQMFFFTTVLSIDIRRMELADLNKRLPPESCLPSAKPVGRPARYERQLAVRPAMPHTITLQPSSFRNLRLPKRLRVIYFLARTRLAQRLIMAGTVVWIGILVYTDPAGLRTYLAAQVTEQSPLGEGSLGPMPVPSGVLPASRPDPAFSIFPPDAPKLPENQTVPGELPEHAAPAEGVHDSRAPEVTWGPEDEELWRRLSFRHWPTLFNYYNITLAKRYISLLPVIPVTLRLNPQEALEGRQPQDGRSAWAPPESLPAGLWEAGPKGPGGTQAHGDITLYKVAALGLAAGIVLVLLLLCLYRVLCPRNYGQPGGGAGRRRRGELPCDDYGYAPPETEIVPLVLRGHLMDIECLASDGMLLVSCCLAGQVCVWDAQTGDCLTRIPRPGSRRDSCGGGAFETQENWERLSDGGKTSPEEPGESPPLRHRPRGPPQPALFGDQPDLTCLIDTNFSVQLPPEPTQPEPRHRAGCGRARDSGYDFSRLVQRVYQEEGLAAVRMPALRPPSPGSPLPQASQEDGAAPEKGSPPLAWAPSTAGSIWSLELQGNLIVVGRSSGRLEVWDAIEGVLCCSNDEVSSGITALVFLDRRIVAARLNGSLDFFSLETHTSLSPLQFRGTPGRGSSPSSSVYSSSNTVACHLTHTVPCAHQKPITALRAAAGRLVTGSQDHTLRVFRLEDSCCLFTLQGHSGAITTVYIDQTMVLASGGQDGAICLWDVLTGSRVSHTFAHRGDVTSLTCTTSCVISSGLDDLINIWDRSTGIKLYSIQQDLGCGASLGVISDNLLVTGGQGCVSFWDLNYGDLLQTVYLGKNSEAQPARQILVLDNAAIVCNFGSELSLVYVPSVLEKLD

Variants of: B1
Conditions: with scap_crigr SCAP

| effect of a mutation on the interaction | Variant |
| --- | --- |
| disrupting interaction strength | D205A |
